Source: the supplement of paper PMC6757056
± gives the standard deviation of the averaged measurements.

B1: library; a variant is named by its letters at N, in order (parent)
chain: GCUGUCACCGGUGCUUGGUACGUUAUAUUCAGCCGGUCUGAUGAGUCUNNNNNNAGACGAAACAGC

Experiments:
(6R,S)-folinic acid [1] = variants of: B1; assay: FACS-Seq fitted mean relative fluorescence mCherry/BFP without ligand (log10 relative fluorescence); HEK293T overexpressing SLC46A1; higher = higher reporter protein expression; settings: without (6R,S)-folinic acid; ligand present: no
Summary of the method: (§1)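 Enriched HEK293T cells carrying, by lentivirus, an mCherry reporter with the ribozyme switch and an EF1α-BFP marker spent 48 h with or without ligand and were sorted into 6 bins by mCherry/BFP. MiSeq sequencing of PCR-amplified bin genomic DNA gave bin counts. Fluorescence was calculated as the fitted normal mean of those counts. Counts were binned on log10(mCherry/BFP), and means were scaled to five spiked-in control ribozymes.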

(6R,S)-folinic acid [2] = variants of: B1; assay: normalized RNA/DNA level without ligand (relative to sTRSVctl = 100) (log10 (% of sTRSVctl)); HEK293T overexpressing SLC46A1; higher = less ribozyme self-cleavage, higher mRNA level; settings: without (6R,S)-folinic acid; ligand present: no
Method: (§2)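 Hammerhead (sTRSV) ribozyme switch libraries with a ligand aptamer grafted on stem I and a randomized N4-6 loop II, cloned into the 3' UTR of mCherry and transiently transfected into HEK293T cells; RNA-Seq 72 h post transfection with ligand added 1 h before transfection; RNA read count / plasmid DNA read count normalized to the non-cleaving sTRSVctl (x100), log10; sequences with >100 DNA reads. FACS-Seq: lentiviral library sorted into 6 bins after 48 h ligand, log-normal fit mean of mCherry/BFP scaled to controls. Printed sequences are partial switch sequences.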

(6R,S)-folinic acid [3] = variants of: B1; assay: FACS-Seq fitted mean relative fluorescence mCherry/BFP with ligand (log10 relative fluorescence); HEK293T overexpressing SLC46A1; ligand concentration (+) FACS-Seq: 6 mM; higher = higher reporter protein expression; settings: with (6R,S)-folinic acid; ligand present: yes
Summary of the method: as §1

(6R,S)-folinic acid [4] = variants of: B1; assay: normalized RNA/DNA level with ligand (relative to sTRSVctl = 100) (log10 (% of sTRSVctl)); HEK293T overexpressing SLC46A1; ligand concentration (+) RNA-Seq: 6 mM; higher = less ribozyme self-cleavage, higher mRNA level; settings: with (6R,S)-folinic acid; ligand present: yes
Method: as §2

Row | Variant | FACS-Seq fitted mean (log10) ((6R,S)-folinic acid [1]) | normalized RNA/DNA level without ligand (log10) ((6R,S)-folinic acid [2]) | FACS-Seq fitted mean (log10) ((6R,S)-folinic acid [3]) | normalized RNA/DNA level with ligand (log10) ((6R,S)-folinic acid [4])
1 | GCUGUCACCGGUGCUUGGUACGUUAUAUUCAGCCGGUCUGAUGAGUCUGAGUUGAGACGAAACAGC [GAGUUG] | 0.407 ± 0.032 | 1.968 ± 0.0093 | 0.387 ± 0.15 | 2.03 ± 0.039
2 | GCUGUCACCGGUGCUUGGUACGUUAUAUUCAGCCGGUCUGAUGAGUCUUAUAAAAGACGAAACAGC [UAUAAA] | 0.216 ± 0.075 | 1.92 ± 0.0034 | 0.0605 ± 0.19 | 1.97 ± 0.022
3 | GCUGUCACCGGUGCUUGGUACGUUAUAUUCAGCCGGUCUGAUGAGUCUCAGUUAAGACGAAACAGC [CAGUUA] | 0.197 ± 0.022 | 1.95 ± 0.02 | 0.573 ± 0.13 | 1.99 ± 0.038
4 | GCUGUCACCGGUGCUUGGUACGUUAUAUUCAGCCGGUCUGAUGAGUCUCAGUUCAGACGAAACAGC [CAGUUC] | -0.0369 ± 0.035 | 2.027 ± 0.017 | -0.16 ± 0.081 | 1.983 ± 0.019
5 | GCUGUCACCGGUGCUUGGUACGUUAUAUUCAGCCGGUCUGAUGAGUCUAAGUGUAGACGAAACAGC [AAGUGU] | 0.173 ± 0.16 | 1.94 ± 0.015 | 0.597 ± 0.37 | 2.01 ± 0.029
6 | GCUGUCACCGGUGCUUGGUACGUUAUAUUCAGCCGGUCUGAUGAGUCUAAGUGAAGACGAAACAGC [AAGUGA] | 0.288 ± 0.021 | 1.952 ± 0.003 | 0.42 ± 0.11 | 2.03 ± 0.021
7 | GCUGUCACCGGUGCUUGGUACGUUAUAUUCAGCCGGUCUGAUGAGUCUCAUAAAAGACGAAACAGC [CAUAAA] | 0.548 ± 0.05 | 1.9396 ± 0.0016 | 0.402 ± 0.075 | 1.96 ± 0.033
8 | GCUGUCACCGGUGCUUGGUACGUUAUAUUCAGCCGGUCUGAUGAGUCUCAUAACAGACGAAACAGC [CAUAAC] | 0.339 ± 0.16 | 1.973 ± 0.0067 | 0.355 ± 0.045 | 1.97 ± 0.038
9 | GCUGUCACCGGUGCUUGGUACGUUAUAUUCAGCCGGUCUGAUGAGUCUAAUAAAAGACGAAACAGC [AAUAAA] | -0.274 ± 0.037 | 1.971 ± 0.009 | -0.301 ± 0.1 | 2 ± 0.025
10 | GCUGUCACCGGUGCUUGGUACGUUAUAUUCAGCCGGUCUGAUGAGUCUUAGUGCAGACGAAACAGC [UAGUGC] | 0.371 ± 0.0073 | 1.949 ± 0.011 | 0.493 ± 0.034 | 2 ± 0.051
11 | GCUGUCACCGGUGCUUGGUACGUUAUAUUCAGCCGGUCUGAUGAGUCUUAGUGGAGACGAAACAGC [UAGUGG] | -0.0676 ± 0.055 | 1.56 ± 0.021 | 0.623 ± 0.023 | 1.89 ± 0.046
12 | GCUGUCACCGGUGCUUGGUACGUUAUAUUCAGCCGGUCUGAUGAGUCUGAGUGGAGACGAAACAGC [GAGUGG] | 0.427 ± 0.07 | 1.914 ± 0.0062 | 0.493 ± 0.18 | 2.01 ± 0.046
13 | GCUGUCACCGGUGCUUGGUACGUUAUAUUCAGCCGGUCUGAUGAGUCUGAGUGCAGACGAAACAGC [GAGUGC] | 0.283 ± 0.14 | 1.944 ± 0.0043 | 0.338 ± 0.15 | 2.03 ± 0.039
14 | GCUGUCACCGGUGCUUGGUACGUUAUAUUCAGCCGGUCUGAUGAGUCUGAGUGAAGACGAAACAGC [GAGUGA] | 0.213 ± 0.11 | 1.96 ± 0.023 | 0.443 ± 0.15 | 2 ± 0.043
15 | GCUGUCACCGGUGCUUGGUACGUUAUAUUCAGCCGGUCUGAUGAGUCUGAGUGUAGACGAAACAGC [GAGUGU] | 0.00433 ± 0.11 | 1.97 ± 0.01 | 0.322 ± 0.027 | 2.04 ± 0.025
16 | GCUGUCACCGGUGCUUGGUACGUUAUAUUCAGCCGGUCUGAUGAGUCUUAGUUGAGACGAAACAGC [UAGUUG] | 0.194 ± 0.067 | 1.768 ± 0.016 | 0.229 ± 0.0032 | 1.96 ± 0.021
17 | GCUGUCACCGGUGCUUGGUACGUUAUAUUCAGCCGGUCUGAUGAGUCUAAGUCGAGACGAAACAGC [AAGUCG] | -0.00669 ± 0.0044 | 1.978 ± 0.0045 | 0.183 ± 0.19 | 2.0217 ± 0.00076
18 | GCUGUCACCGGUGCUUGGUACGUUAUAUUCAGCCGGUCUGAUGAGUCUGAUAAAAGACGAAACAGC [GAUAAA] | 0.3694 ± 0.0011 | 1.956 ± 0.0085 | 0.397 ± 0.027 | 2 ± 0.034
19 | GCUGUCACCGGUGCUUGGUACGUUAUAUUCAGCCGGUCUGAUGAGUCUCAGUCGAGACGAAACAGC [CAGUCG] | 0.4924 ± 0.0036 | 2.022 ± 0.01 | 0.422 ± 0.19 | 2.037 ± 0.018
20 | GCUGUCACCGGUGCUUGGUACGUUAUAUUCAGCCGGUCUGAUGAGUCUAAGUUGAGACGAAACAGC [AAGUUG] | 0.479 ± 0.061 | 1.914 ± 0.013 | 0.582 ± 0.24 | 2.02 ± 0.054
21 | GCUGUCACCGGUGCUUGGUACGUUAUAUUCAGCCGGUCUGAUGAGUCUAAGUUAAGACGAAACAGC [AAGUUA] | 0.382 ± 0.14 | 1.973 ± 0.0048 | 0.443 ± 0.016 | 2.01 ± 0.031
